Numbering of substitutions follows the chain as printed.
T1: His-tagged human AXL extracellular domain (recombinant) (human, UniProt P30530 26-451)
T1 construct: treated as one molecule; also called human AXL ECD; AXL-His ECD; not shown: His tag
T1 sequence: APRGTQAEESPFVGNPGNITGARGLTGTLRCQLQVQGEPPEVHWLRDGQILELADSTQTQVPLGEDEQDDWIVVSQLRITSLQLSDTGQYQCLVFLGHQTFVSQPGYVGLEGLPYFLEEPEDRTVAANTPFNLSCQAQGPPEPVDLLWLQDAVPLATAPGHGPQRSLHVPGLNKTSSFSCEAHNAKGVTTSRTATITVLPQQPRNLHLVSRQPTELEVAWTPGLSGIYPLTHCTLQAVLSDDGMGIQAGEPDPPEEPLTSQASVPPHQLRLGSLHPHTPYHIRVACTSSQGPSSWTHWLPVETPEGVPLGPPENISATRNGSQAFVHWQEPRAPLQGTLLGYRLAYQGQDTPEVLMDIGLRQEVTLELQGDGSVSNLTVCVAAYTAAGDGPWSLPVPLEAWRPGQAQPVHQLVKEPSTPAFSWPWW

T2: human AXL extracellular domain transiently expressed on CHO-S cells (human, UniProt P30530 26-451)
T2 construct: also called human AXL ECD on CHO-S cells
T2 sequence: T1 sequence

B1: 23203_3 (antibody, human IgG1, kappa, L234A L235A, V domains shown)
VH: QVQLQQWGAGLLKPSETLSLTCTVSGGSFSGYYWTWIRQPPGKGLEWIGEINHAGSTNYNPSLKSRVTISVDTSKNQFSLKLSSVTAADTAVYYCSSREYSSRWHFDYWGQGTLVTVSS
VL: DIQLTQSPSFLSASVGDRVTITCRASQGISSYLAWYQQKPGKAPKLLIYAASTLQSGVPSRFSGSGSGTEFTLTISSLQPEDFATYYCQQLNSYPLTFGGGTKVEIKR
notes: Fully human IgG1-LALA, kappa
B2: 23203_1 (antibody, human IgG1, kappa, L234A L235A, V domains shown)
VH: B1 VH with Q6E, W7S, A9P, L12V, T35S
VL: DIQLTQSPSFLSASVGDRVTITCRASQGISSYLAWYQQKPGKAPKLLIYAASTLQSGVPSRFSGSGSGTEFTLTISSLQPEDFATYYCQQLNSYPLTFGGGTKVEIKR
notes: Fully human IgG1-LALA, kappa
B3: 23203_4 (antibody, human IgG1, kappa, L234A L235A, V domains shown)
VH: B1 VH with T23A, S25Y
VL: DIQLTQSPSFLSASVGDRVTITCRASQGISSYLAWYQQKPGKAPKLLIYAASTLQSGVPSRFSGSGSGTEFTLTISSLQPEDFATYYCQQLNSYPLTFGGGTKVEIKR
notes: Fully human IgG1-LALA, kappa
B4: 23203_2 (antibody, human IgG1, kappa, L234A L235A, V domains shown)
VH: B1 VH with T23A, S25Y, A54S
VL: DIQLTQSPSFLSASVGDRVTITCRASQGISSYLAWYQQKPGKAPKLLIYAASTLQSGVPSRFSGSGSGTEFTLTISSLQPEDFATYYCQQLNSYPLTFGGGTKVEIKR
notes: Fully human IgG1-LALA, kappa
B5: 22883 (antibody, human IgG1, kappa, L234A L235A, V domains shown)
VH: EVQLVESGGGLVQPGGSLRLSCAASGFTFSSYAMSWVRQAPGKGLEWVSAISGGGDYTYYADSVKGRFTISRDNSKNTLYLQMNSLRAEDTAVYYCAKEEWELRGPFRYWGQGTLVTVSS
VL: DIQMTQSPSTLSASVGDRVTITCRASQSISSWLAWYQQKPGKAPKFLIYKASSLESGVPSRFSGSGSGTEFTLTISSLQPDDFATYYCQQYNGFSWTFGQGTKVEIKR
notes: Fully human IgG1-LALA, kappa
B6: 22995 (antibody, human IgG1, kappa, L234A L235A, V domains shown)
VH: EVQLVESGGSLVQPGGSLRLSCAASGFTFSSSAMSWVRQAPGKGLEWVSTISGSDSSTYDADSVKGRSTISRDNSKNTLYLQMNSLRADDTAVYYCAKKGAYCSGTICYDPFDYWGQGTLVTVSS
VL: DIVLTQSPVLAVSLGQRATISCRASQSVSISSINLMHWYQQKPGQQPKLLIYRASNLASGIPARFSGSGSGTDFTLTIDPVQADDIAAYYCQQSRESPLTFGGGTKVEIKR
notes: Fully human IgG1-LALA, kappa

Assays:
[1] = biological target: T1, His-tagged human AXL extracellular …; assay: SPR (IBIS MX96), antibody captured, monovalent His-tagged AXL ECD in solution, 1:1 fit
Procedure: (§1) The kinetic binding analysis was performed by surface plasmon resonance (SPR), using a Continuous Flow Microspotter (CFM, Wasatch Microfluidics, Salt Lake City, US) combined with an IBIS MX96 SPR instrument (IBIS Technologies, The Netherlands).
(§2) His-tagged human and cynomolgus AXL ECD were expressed in Expi293F cells and purified by Ni-NTA chromatography. Binding kinetics were measured under monovalent antigen conditions by immobilizing anti-AXL antibodies and keeping the monovalent AXL antigen in solution. Antibodies were captured onto a G-a-hu-IgG Fc SensEye® (Ssens BV, The Netherlands) for 15 minutes using a Continuous Flow Microspotter (CFM, Wasatch Microfluidics, Salt Lake City, US). After spotting, the SensEye® was positioned in the IBIS MX96 biosensor and captured proteins were fixed to the surface using FixIT kit (Ssens BV, The Netherlands). Kinetic analysis was performed by applying kinetic titration series (Karlsson et al., Anal Biochem. 349(1):136-47 (2006)), with antigen injections at increasing concentrations from 0.14 nM to 100 nM. Antigen association and dissociation was performed for 15 minutes. After each antigen injection series, the surface was regenerated by 100 mM H₃PO₄, pH 3 regeneration buffer. The recorded binding responses were fitted to a simple Langmuir 1:1 binding model with Scrubber 2 software for calculation of the on-rate (kₒₙ or ka), off-rate (koff or kd) and affinity (KD) constants.

[2] = biological target: T3, His-tagged cynomolgus AXL extracellular domain (recombinant) (cynomolgus); assay: as above
T3 construct: extracellular domain; Expressed in Expi293F cells, purified by Ni-NTA; also called cynomolgus AXL ECD
Procedure: as §1, §2

[3] = biological target: T2, human AXL extracellular domain …; assay: flow cytometry, serial dilution on CHO-S cells transiently expressing human AXL ECD, AF647 anti-human IgG secondary, GeoMean (RL1-H)
Procedure: (§3) Six anti-human AXL antibodies and reference antibody analogues were evaluated by flow cytometry for in vitro binding to human or cynomolgus AXL extracellular domain transiently expressed on CHO-S cells. For comparison, reference antibody analogues were included in the evaluation. All antibodies were incubated in serial dilutions together with the transiently transfected CHO-S cells for 30 min at 4° C. Following two washing steps, the cells were incubated with AF647-conjugated secondary anti-human IgG (H+L) antibody for 30 min at 4° C. A final washing step was done prior to acquisition of the cells on an iQue Plus screener. Results were calculated by GrafPad Prism software.

[4] = biological target: T4, cynomolgus AXL extracellular domain transiently expressed on CHO-S cells (cynomolgus); assay: flow cytometry, serial dilution on CHO-S cells transiently expressing cynomolgus AXL ECD, AF647 anti-human IgG secondary, GeoMean (RL1-H)
T4 construct: extracellular domain; also called cynomolgus AXL ECD on CHO-S cells
Procedure: as §3

Binder | Kd [1] [nM] | koff [1] [s⁻¹] | kon [1] [M⁻¹ s⁻¹] | Kd [2] [nM] | koff [2] [s⁻¹] | kon [2] [M⁻¹ s⁻¹] | EC50 (read off the curve) [3] [µg/mL] | EC50 (read off the curve) [4] [µg/mL]
B1 | 15 | 0.0016 | 110000 | 13 | 0.0018 | 140000 | ~0.02 | ~0.02
B2 | 15 | 0.0021 | 140000 | 13 | 0.0024 | 180000 | ~0.02 | ~0.02
B3 | 25 | 0.0023 | 90000 | 15 | 0.0021 | 150000 | ~0.02 | ~0.02
B4 | 11 | 0.0016 | 140000 | 15 | 0.0016 | 110000 | ~0.02 | ~0.02
B5 | 9.6 | 0.00031 | 32000 | 7.2 | 0.0002 | 28000 | ~0.07 | ~0.05
B6 | 0.69 | 0.00057 | 820000 | 80 | 0.0011 | 14000 | ~0.007 | ~0.4
